{
  "source": "patent US20210403565A1",
  "about": "(BIOATLA, published 2021)",
  "binders": {"B1": {"name": "BA-087-05-19 (antibody, V domains shown)", "VH": "EVQLVESGGGLVQPGGSLRLSCAASGFTFSHYTMHWVRQAPGKGLEWVSFISYDGNNKYYADSVKGRFTISRDNSKNTLYLQMNSLRAEDTAVYYCARTGWLGPFDYWGQGTLVTVSS", "VL": "AIQLTQSPSSLSASVGDRVTITCRASQYVGSSYLAWYLQKPGQSPQLLIYGAFSRATGIPARFSGSGSGTEFTLTISSLQSEDFAVYYCQQDGSSPWTFGQGTKVEIK", "notes": "Detected with anti-human IgG and a molecular weight of 146 kDa was used in SPR, so it was tested as a whole IgG; also called BA-087-05-019; BA-087-05-19 (# 6972)"}, "B2": {"name": "BA-087-08-32 (antibody, V domains shown)", "VH": "EVQLVQSGAEVKKPGATVKISCKVSGFTFSHYTMHWIRQSPSRGLEWLGFISYDGNYKYYADSVKGRFTISRDNAKNSLYLQMNSLRAEDTAVYYCARTGWLGPFDYWGQGTLVTVSS", "VL": "EIVMTQSPATLSVSPGERATLSCRASQSVGSSYLAWYQQKPGKAPKLLIYGAFSRATGVPSRFSGSGSGTDFTLTISSLQPEDFATYYCQQDGSSPWTFGQGTKVEIK", "notes": "Detected with anti-human IgG and a molecular weight of 146 kDa was used in SPR, so it was tested as a whole IgG; also called BA-087-08-032; BA-087-08-32 (# 6978)"}},
  "key": {"[1]": {"biological_target": "T1, human CTLA4 expressed on the cell surface of CHO cells (human, UniProt P16410 36-223)", "T1 construct": "whole, on cells; also called CHO-huCTLA4; huCTLA4", "T1 sequence (looked up)": "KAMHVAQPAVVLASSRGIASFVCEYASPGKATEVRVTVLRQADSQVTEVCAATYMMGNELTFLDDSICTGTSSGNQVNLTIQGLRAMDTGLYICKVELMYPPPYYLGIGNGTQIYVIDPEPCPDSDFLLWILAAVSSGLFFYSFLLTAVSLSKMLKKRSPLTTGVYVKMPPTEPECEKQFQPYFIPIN", "assay": "FACS, cells expressing human CTLA4, assay pH 6.0, MFI; lot 6972 control without test buffer; same column repeated in FIG. 10B and FIG. 10C; unit from the axis Log[ng/mL]", "method": "(§1) The amount of bound antibodies was quantified using anti-human IgG antibody conjugated to fluorophores. The MFI in each reaction was proportional to the amount of antibodies bound. The EC₅₀ value (in ng/mL) for binding to human CTLA4 on cells was determined by MFI of the singlets population against antibody concentration with a Prism variable slope of four-parameter dose-response curve, which was calculated using the nonlinear fit (variable slope, four parameters) model built into GraphPad Prism software (version 7.03)."}, "[2]": {"biological_target": "T2, recombinant human CTLA4 extracellular domain (human, UniProt P16410 36-161)", "T2 construct": "extracellular domain; also called huCTLA-4", "T2 sequence (looked up)": "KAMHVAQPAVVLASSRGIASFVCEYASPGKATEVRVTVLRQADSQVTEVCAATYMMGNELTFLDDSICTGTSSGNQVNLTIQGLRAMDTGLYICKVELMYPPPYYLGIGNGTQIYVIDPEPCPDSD", "assay": "ELISA, wells coated with human CTLA4, assay pH 7.4; lot 6972 in His buffer, T0; unit from the axis Log[ng/mL]", "method": "(§2) Both ELISA and FACS analysis were used to measure the binding activity. […] The amount of bound antibodies was quantified using anti-human IgG antibody conjugated to HRP. The absorbance at 450 nm in each measurement was proportional to the amount of antibodies bound. […] EC50 value (in ng/mL) for binding to human CTLA4 was determined by absorbance at 450 nm against antibody concentration with Prism variable slope of four-parameter dose-response curve, which was calculated using the nonlinear fit (variable slope, four parameters) model built into GraphPad Prism software (version 7.03). The buffers tested included His buffer (His), Tris buffer (Tris), Glutamine buffer (Glu) and no buffer."}, "[3]": {"biological_target": "T2, recombinant human CTLA4 extracellular …", "assay": "ELISA, wells coated with human CTLA4, assay pH 7.4; lot 6972 in Glu buffer, T0; unit from the axis Log[ng/mL]", "method": "as §2"}, "[4]": {"biological_target": "T2, recombinant human CTLA4 extracellular …", "assay": "ELISA, immobilised huCTLA-4, table head pH 7.0 (text: pH 7.4), Jun. 27, 2017"}, "[5]": {"biological_target": "T1, human CTLA4 expressed on the cell …", "assay": "FACS, cells expressing human CTLA4, assay pH 6.0, MFI; lot 6972 in His buffer, T2W; unit from the axis Log[ng/mL]", "method": "as §1"}, "[6]": {"biological_target": "T2, recombinant human CTLA4 extracellular …", "assay": "ELISA, wells coated with human CTLA4, assay pH 6.0; lot 6972 in Tris buffer, T0; unit from the axis Log[ng/mL]", "method": "as §2"}, "[7]": {"biological_target": "T2, recombinant human CTLA4 extracellular …", "assay": "ELISA, wells coated with human CTLA4, assay pH 6.0; lot 6972 without test buffer; same column repeated in FIG. 9B and FIG. 9C; unit from the axis Log[ng/mL]", "method": "as §2"}, "[8]": {"biological_target": "T1, human CTLA4 expressed on the cell …", "assay": "FACS saturation, CHO-huCTLA-4, pH 7.4, MFI, titration up to about log 6.5; no unit in the table, unit from the axis Log Antibodies [ng/ml]", "method": "(§3) The amount of antibodies bound on the cells was quantified using anti-human IgG antibody conjugated to fluorophores. EC₅₀ values at pH 6.0 and 7.4 for binding to cells were calculated using the nonlinear fit (variable slope, four parameters) model built into GraphPad Prism software (version 7.03). The expression levels of human CTLA4 or cynomolgus CTLA4 on the surface of the CHO cells were determined using a BD QuantiBRITE™ PE kit.\n(§4) Finally, saturations of the antibodies on the CHO cells expressing human or cynomolgus CTLA4 at pH 7.4 were also measured by FACS (FIGS. 8A-8B)."}, "[9]": {"biological_target": "T3, cynomolgus CTLA4 expressed on the cell surface of CHO cells (cynomolgus, UniProt G7PL88 36-223)", "T3 construct": "whole, on cells; also called CHO-cynoCTLA4", "T3 sequence": "T1 sequence (looked up) with S14N, I18T, L106M", "assay": "FACS saturation, CHO-cynoCTLA-4, pH 7.4, MFI, titration up to about log 6.5; at baseline up to about log 4.5, about 100000 at the end, no plateau; no unit in the table, unit from the axis Log Antibodies [ng/ml]", "method": "as §3, §4"}, "[10]": {"biological_target": "T2, recombinant human CTLA4 extracellular …", "assay": "ELISA, wells coated with human CTLA4, assay pH 7.4; lot 6978 in Tris buffer, T2W; curve still rising at log 3 (OD450 at most about 0.3), no plateau; unit from the axis Log[ng/mL]", "method": "as §2"}, "[11]": {"biological_target": "T1, human CTLA4 expressed on the cell …", "assay": "FACS, cells expressing human CTLA4, assay pH 7.4, MFI; lot 6978 in Glu buffer, T0; unit from the axis Log[ng/mL]", "method": "as §1"}},
  "note": "Where a chain is given by its changes, count along the chain named.",
  "data": [
    {"binder": "B1", "values": [
      {"measurement": "EC50", "setting": "[1]", "result": 0.223, "unit": "µg/mL"},
      {"measurement": "EC50", "setting": "[2]", "result": 0.0544, "unit": "µg/mL"},
      {"measurement": "EC50", "setting": "[3]", "result": 0.11, "unit": "µg/mL"},
      {"measurement": "EC50", "setting": "[4]", "result": 0.0358, "unit": "µg/mL"},
      {"measurement": "EC50", "setting": "[5]", "result": 0.295, "unit": "µg/mL"},
      {"measurement": "EC50", "setting": "[6]", "result": 0.00591, "unit": "µg/mL"},
      {"measurement": "EC50", "setting": "[7]", "result": 0.00626, "unit": "µg/mL"},
      {"measurement": "EC50", "setting": "[8]", "result": 0.846, "unit": "µg/mL"}
    ]},
    {"binder": "B2", "values": [
      {"measurement": "EC50", "setting": "[9]", "result": 1650, "unit": "µg/mL"},
      {"measurement": "EC50", "setting": "[10]", "result": 1.49, "unit": "µg/mL"},
      {"measurement": "EC50", "setting": "[11]", "result": 0.814, "unit": "µg/mL"}
    ]}
  ]
}
